For test [1], the system named is HK-2 cells. Nature of the test: HK-2 cell necrosis induced with 2 mM H2O2 (LDH release). The format is cell-based, human. How it is done:
(§1) HK2 cells (human proximal tubular line) obtained from ATTC (Manassas, Va., USA) were cultured in DMEM/F12 supplemented with glutamine, 10% FBS and antibiotics, and were maintained at 37° C. in 5% CO2. Cells were exposed to cisplatin (20 μM) in the presence or absence of renalase for 24 hrs, and cell viability was assessed by the WST1 method (Roche Applied Science, Germany). Cells were then harvested in RIPA buffer (20 mM Tris-HCl pH 7.5, 150 mM NaCl, 1 mM Na2EDTA, 1 mM EGTA, 1% NP-40, 1% sodium deoxycholate, 2.5 mM sodium pyrophosphate, 1 mM β-glycerophosphate, 1 mM Na3VO4, 1 μg/ml leupeptin) supplemented with a protease and phosphatase inhibitor cocktail (Roche Applied Science, Germany). Proteins were separated by SDS-PAGE and Western blotting was carried out using the following antibodies: anti-renalase monoclonal (Desir et al., 2012, J Am Heart Assoc. 1:e002634; (Lee et al., 2013, J Am Soc Nephrol 24:445-455); anti caspase 3 (Cell Signaling Technology, MA, USA) and anti Bcl2 (Thermo Scientific, USA). Necrotic injury in HK-2 cells (ATCC, Manassas, Va.) was induced with exposure to 2 mM H2O2 for 2-8 hr and lactate dehydrogenase (LDH) released into cell culture media was measured as described using a commercial LDH assay kit (Promega, Madison, Wis.) (Lee and Emala, 2002, American journal of physiology. Renal physiology 282:F844-852).

In test [2] the test system is renal ischemia/reperfusion (IR) injury. The test can be described thus: Murine model of renal ischemia/reperfusion (IR) injury, plasma creatinine. The format is in vivo, mice. How it is done: Adult male renalase deficient (KO) mice (Wu et al., 2011, Kidney Int 79: 853-860) on a C57BL/6 background were subjected to renal ischemia/reperfusion (IR) as described (Kim et al., 2009, Kidney Int 75: 809-823; Kim et al., 2010, Am J Physiol Renal Physiol 299(2):F347-58). Renalase KO or wild type (WT) mice (C57BL/6 from Harlan Labs, Indianapolis, Ind.) were subjected to sham-operation or to 20 min. (moderate) or 30 min. (severe) renal ischemia and 24 hr. reperfusion. To test the renal protective effects of recombinant human renalase, mice were pretreated with saline (vehicle) or with recombinant renalase (0.5, 1.5 or 4.5 mg/kg, s.c.) 10 min. prior to 30 min. renal ischemia. It was also tested whether renalase treatment after completion of renal ischemia also provides renal protection. Separate cohorts of mice were treated with saline or with renalase (1.5 mg/kg, s.c.) 30 min. or 60 min. after reperfusion of the ischemic kidney. To test whether blocking alpha receptors would mimic the renal protective effects of human recombinant renalase administration, phentolamine (an alpha receptor antagonist, 5 mg/kg, i.p.) was given in some mice 15 min. before renal ischemia.
Plasma creatinine was measured as described with an enzymatic creatinine reagent kit according to the manufacturer's instructions (Thermo Fisher Scientific, Waltham, Mass.) (Slot, 1965, J Clin Lab Invest 17: 381-387).
After animal care and use committee approval, adult male C57BL/6 (Harlan Labs, Indianapolis, Ind.) were subjected to sham-operation or to 30 minutes of renal ischemia followed by 24 hrs of reperfusion as previously described (Lee et al., 2004, American journal of physiology. Renal physiology 286:F298-306). To test the renal protective effects of renalase peptides (RP-220, RP-H220 and RP-224), mice were pretreated with saline (vehicle) or with renalase peptides (100 μg subcutaneous) 10 to 30 minutes prior to renal ischemia.
Blood was collected from mice anesthetized with isoflurane via cardiac puncture into a heparinized syringe and was subsequently centrifuged to separate plasma. Samples were submitted to the Yale O'Brien Kidney Center for measurement of BUN and creatinine. Plasma creatinine was measured either by an enzymatic creatinine reagent kit according to the manufacturer's instructions (Thermo Fisher Scientific, Waltham, Mass.) or by HPLC. These methods of creatinine measurement largely eliminate the interferences from mouse plasma chromagens, known to occur with the Jaffe method.

Test [3] relates to HK-2 cells. Nature of the test: HK-2 cell cisplatin toxicity (WST-1 viability, western blot). The conditions noted are these: 20 μM cisplatin, 24 hrs. It counts as cell-based, human. How it is done: Cultured HK-2 cells were incubated with 20 μM cisplatin for 24 hours with and without recombinant renalase. Renalase expression was examined by Western blot and cell viability (mitochondrial integrity) was determined spectrophotometrically using WST-1, a tetrazolium salt that is cleaved, by mitochondrial dehydrogenases of metabolically active and viable cells, to formazan (420-480 nm) (Boehringer Mannheim, Germany).
as §1

B1: recombinant renalase: human recombinant renalase, 38 kDa FAD-dependent amine oxidase; renalase polypeptide SEQ ID NO: 9 or 10 (protein, UniProt Q5VYX0 18-342, looked up)
Renalase: ALLRRQTSGPLYLAVWDKAEDSGGRMTTACSPHNPQCTADLGAQYITCTPHYAKKHQRFYDELLAYGVLRPLSSPIEGMVMKEGDCNFVAPQGISSIIKHYLKESGAEVYFRHRVTQINLRDDKWEVSKQTGSPEQFDLIVLTMPVPEILQLQGDITTLISECQRQQLEAVSYSSRYALGLFYEAGTKIDVPWAGQYITSNPCIRFVSIDNKKRNIESSEIGPSLVIHTTVPFGVTYLEHSIEDVQELVFQQLENILPGLPQPIATKCQKWRHSQVTNAAANCPGQMTLHHKPFLACGGDGFTQSNFDGCITSALCVLEALKNYI
On to B1, for which the “LDH released at 6 hr” value in test [1] (10 μg/ml, 2 mM H2O2, vehicle LDH=47+3%) turned out to be 28±2%. The “necrosis induced with 2 mM H2O2” value in test [1] (vs. vehicle-treated HK-2 cells) is reported as “significantly reduced necrosis”. In addition, the “protection against renal IR injury, post-ischemic treatment” value is “protective against renal IR injury” in test [2] (1.5 mg/kg given 30 min. after reperfusion) and “did not provide renal protection” in test [2] (given 60 min. after reperfusion). Further, the “renal protection at higher dose compared with 1.5 mg/kg” value in test [2] (4.5 mg/kg s.c. 10 min. before renal ischemia) is given as “provided reduced renal protection”. Further, the “increases in plasma creatinine after renal IR” value in test [2] (0.5, 1.5 or 4.5 mg/kg s.c. 10 min. before 30 min. renal ischemia, 24 hr. reperfusion) was “significantly attenuated the increases in plasma creatinine”. Also, in test [2] (recombinant renalase 1.5 mg/kg, 30 min. warm ischemia, decreased from ~2.4 mg/dL), the plasma creatinine was 1.4 mg/dL. Besides, the “cell survival / protection against cisplatin toxicity” value was “improved HK-2 cell survival” in test [3] and “reversed” in test [3] (listed as exogenous renalase). Also, in test [3] (western blot), the Bcl-2 expression result is “increased Bcl-2 expression”. Moreover, the caspase-3 activation result is “decreased caspase-3 activation” in test [3] (western blot) and “inhibited caspase-3 activation” in test [3] (western blot, listed as Renalase). Moreover, the cellular renalase expression entry in test [3] (western blot) is listed as “restored cellular renalase expression”.

Source of the values: US10066025B2, “Compositions and methods for detecting, treating and preventing diseases and disorders” (YALE UNIVERSITY, priority 2012, dated 2018).
